Starred links: 1 amine or outer side, 2 acyl side, 3 side chain; linkers in the order of their positions; H or OH if unused. Positions of bridges follow the written chain, without caps; N, C: chain ends. Non-standard residues stand in square brackets, D forms with d. Primed or numbered codes have the meaning given here. PyrS2″ = (S)-3-amino-1-((pent-4-en-1-yloxy)carbonyl)pyrrolidine-3-carboxylic acid (stapling residue), C=CCCCOC(=O)N1CC[C@@](N[*:1])(C(=O)[*:2])C1; B5(4) = 2,2-bis(4-pentenyl)glycine = 2-amino-2-(pent-4-en-1-yl)hept-6-enoic acid (stitching residue), C=CCCCC(CCCC=C)(N[*:1])C(=O)[*:2]; B5(12) = 2-amino-2-(pent-4-en-1-yl)hept-6-enoic acid (two olefin side chains), C=CCCCC(CCCC=C)(N[*:1])C(=O)[*:2]; B5(3) = 2,2-bis(4-pentenyl)glycine (stitching residue), C=CCCCC(CCCC=C)(N[*:1])C(=O)[*:2]; Phe(3-COOH) = N[C@@H](Cc1cccc(C(=O)O)c1)C(=O)O; Phe(2-Cl) = N[C@@H](Cc1ccccc1Cl)C(=O)O; Bta = N[C@@H](Cc1csc2ccccc12)C(=O)O; αAllylPro = C=CC[C@@]1(C(=O)O)CCCN1; tBuAla = CC(C)(C)C[C@H](N)C(=O)O; 3Thi = N[C@@H](Cc1ccsc1)C(=O)O; Nle = CCCC[C@H](N)C(=O)O
B1: I-1409 (peptide)
peptide: Ac-[αAllylPro]D[tBuAla][B5(12)]DDAAFL[PyrS2″][3Thi][Bta]L-NH2
modifications: staple 1-4, 4-11
B2: I-1410 (peptide)
peptide: Ac-[αAllylPro]DL[B5(12)]DDAAFL[PyrS2″][3Thi][Bta]L-NH2
modifications: staple 1-4, 4-11
B3: I-1411 (peptide)
peptide: Ac-[αAllylPro]D[Nle][B5(12)]DDAAFL[PyrS2″][3Thi][Bta]L-NH2
modifications: staple 1-4, 4-11; also: staple isomer, earlier eluting HPLC peak
B4: I-1412 (peptide)
peptide: Ac-[αAllylPro]D[Nle][B5(12)]DDAAFL[PyrS2″][3Thi][Bta]L-NH2
modifications: staple 1-4, 4-11
B5: I-2033 (peptide)
peptide: Ac-[αAllylPro]D[tBuAla][B5(3)]D[Phe(3-COOH)]AAFN[PyrS2″][Phe(2-Cl)][Bta]F-NH2
modifications: staple 1-4, 4-11
B6: I-2035 (peptide)
peptide: Ac-[αAllylPro]D[tBuAla][B5(3)]D[Phe(3-COOH)]AAFA[PyrS2″][Phe(2-Cl)][Bta]N-NH2
modifications: staple 1-4, 4-11; also: staple isomer, earlier eluting HPLC peak
B7: I-2036 (peptide)
peptide: Ac-[αAllylPro]D[tBuAla][B5(3)]D[Phe(3-COOH)]AAFA[PyrS2″][Phe(2-Cl)][Bta]N-NH2
modifications: staple 1-4, 4-11
B8: I-2037 (peptide)
peptide: Ac-[αAllylPro]D[tBuAla][B5(3)]D[Phe(3-COOH)]AAFF[PyrS2″][Phe(2-Cl)][Bta]N-NH2
modifications: staple 1-4, 4-11
B9: I-2040 (peptide)
peptide: Ac-[αAllylPro]D[tBuAla][B5(3)]D[Phe(3-COOH)]AAFL[PyrS2″][Phe(2-Cl)][Bta]NAAA-NH2
modifications: staple 1-4, 4-11
B10: I-2041 (peptide)
peptide: Ac-[αAllylPro]D[tBuAla][B5(3)]D[Phe(3-COOH)]AAFL[PyrS2″][Phe(2-Cl)][Bta]NAA[dA]-NH2
modifications: staple 1-4, 4-11
B11: I-2042 (peptide)
peptide: Ac-[αAllylPro]D[tBuAla][B5(3)]D[Phe(3-COOH)]AAFA[PyrS2″][3Thi][Bta]N-NH2
modifications: staple 1-4, 4-11
B12: I-2043 (peptide)
peptide: Ac-[αAllylPro]D[tBuAla][B5(3)]D[Phe(3-COOH)]AAFL[PyrS2″][3Thi][Bta]N-NH2
modifications: staple 1-4, 4-11
B13: I-2044 (peptide)
peptide: Ac-[αAllylPro]D[tBuAla][B5(3)]D[Phe(3-COOH)]AAFF[PyrS2″][3Thi][Bta]N-NH2
modifications: staple 1-4, 4-11
B14: I-2045 (peptide)
peptide: Ac-[αAllylPro]D[tBuAla][B5(3)]D[Phe(3-COOH)]AAFS[PyrS2″][3Thi][Bta]N-NH2
modifications: staple 1-4, 4-11
B15: I-2050 (peptide)
peptide: Ac-[αAllylPro]D[tBuAla][B5(3)]D[Phe(3-COOH)]SAFL[PyrS2″][3Thi][Bta]A-NH2
modifications: staple 1-4, 4-11
B16: I-808 (peptide)
peptide: Ac-[αAllylPro]D[tBuAla][B5(4)]DDAAFF[PyrS2″][3Thi][Bta]H-NH2
modifications: staple 1-4, 4-11

What follows are binders tested against Bcat-Halo (beta-catenin HaloTag construct expressed in HEK293 cells) (UniProt P35222) (assay: NanoBRET Abs IC50 in HEK293 cells; B-cat-Halo with competitor TCF4-Luc).
Sequence of Bcat-Halo (beta-catenin HaloTag construct expressed in HEK293 cells) (P35222 whole entry): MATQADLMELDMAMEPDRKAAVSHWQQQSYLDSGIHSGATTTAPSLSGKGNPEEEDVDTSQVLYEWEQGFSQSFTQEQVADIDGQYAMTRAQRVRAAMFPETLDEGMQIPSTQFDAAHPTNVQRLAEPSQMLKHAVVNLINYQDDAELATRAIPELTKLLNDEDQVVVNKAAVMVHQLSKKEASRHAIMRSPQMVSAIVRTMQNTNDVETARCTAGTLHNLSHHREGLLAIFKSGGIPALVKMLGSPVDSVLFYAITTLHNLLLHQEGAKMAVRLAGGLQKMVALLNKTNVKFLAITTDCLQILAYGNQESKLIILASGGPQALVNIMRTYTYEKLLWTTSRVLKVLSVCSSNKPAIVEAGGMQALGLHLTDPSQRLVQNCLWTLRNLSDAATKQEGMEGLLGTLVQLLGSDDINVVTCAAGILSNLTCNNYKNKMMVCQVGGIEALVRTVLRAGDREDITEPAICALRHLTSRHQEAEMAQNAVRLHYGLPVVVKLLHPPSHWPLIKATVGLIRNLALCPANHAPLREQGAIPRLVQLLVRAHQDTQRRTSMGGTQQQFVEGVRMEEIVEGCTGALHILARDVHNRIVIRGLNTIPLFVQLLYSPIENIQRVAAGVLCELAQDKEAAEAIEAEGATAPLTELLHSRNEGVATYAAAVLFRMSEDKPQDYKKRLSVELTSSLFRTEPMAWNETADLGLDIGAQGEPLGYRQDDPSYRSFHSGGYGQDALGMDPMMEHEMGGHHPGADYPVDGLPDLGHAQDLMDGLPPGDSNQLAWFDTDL

Row | Binder | IC50
1 | B1 | 24 µM
2 | B2 | 29.3 µM
3 | B3 | 47.1 µM
4 | B4 | > 20 µM

Each binder was assayed against full-length beta-Catenin (Uniprot ID P35222) (Homo sapiens (Human)) (UniProt P35222) (assay: fluorescence polarization competition against 5FAM-TCF4 (10-53) on full-length beta-catenin).
Sequence of full-length beta-Catenin (Uniprot ID P35222) (Homo sapiens (Human)) (P35222 2-781 limits assumed): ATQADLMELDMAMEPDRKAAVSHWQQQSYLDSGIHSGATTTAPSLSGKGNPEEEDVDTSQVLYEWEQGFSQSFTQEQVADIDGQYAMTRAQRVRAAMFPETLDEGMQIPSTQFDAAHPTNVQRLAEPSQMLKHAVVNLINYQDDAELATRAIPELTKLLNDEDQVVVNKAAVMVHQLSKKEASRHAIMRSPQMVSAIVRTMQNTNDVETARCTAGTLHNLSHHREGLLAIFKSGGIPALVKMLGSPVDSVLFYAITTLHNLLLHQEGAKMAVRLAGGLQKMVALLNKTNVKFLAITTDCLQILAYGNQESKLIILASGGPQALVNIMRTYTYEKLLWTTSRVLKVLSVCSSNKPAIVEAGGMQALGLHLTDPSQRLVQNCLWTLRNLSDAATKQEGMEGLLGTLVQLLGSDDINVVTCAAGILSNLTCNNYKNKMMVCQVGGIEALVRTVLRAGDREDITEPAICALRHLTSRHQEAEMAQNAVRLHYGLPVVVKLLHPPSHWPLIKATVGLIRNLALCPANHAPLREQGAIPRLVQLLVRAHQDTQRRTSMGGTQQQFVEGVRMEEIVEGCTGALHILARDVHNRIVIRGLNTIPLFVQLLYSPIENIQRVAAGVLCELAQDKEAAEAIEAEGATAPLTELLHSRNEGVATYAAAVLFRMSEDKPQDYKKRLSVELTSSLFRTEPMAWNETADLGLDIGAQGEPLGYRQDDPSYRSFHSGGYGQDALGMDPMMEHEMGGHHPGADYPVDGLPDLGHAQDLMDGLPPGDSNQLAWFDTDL

Row | Binder | IC50
5 | B5 | 0.03 µM
6 | B6 | 0.016 µM
7 | B7 | 0.019 µM
8 | B8 | 0.017 µM
9 | B9 | 0.024 µM
10 | B10 | 0.016 µM
11 | B11 | 0.009 µM
12 | B12 | 0.008 µM
13 | B13 | 0.009 µM
14 | B14 | 0.005 µM
15 | B15 | 0.009 µM

What follows are binders tested against full-length beta-Catenin (Uniprot ID P35222) (Homo sapiens (Human)) (UniProt P35222) (assay: fluorescence polarization competition; full-length beta-catenin, competitor 5FAM-TCF4 10-53 probe).

Row | Binder | IC50
16 | B1 | 0.074 µM
17 | B2 | 0.08 µM
18 | B3 | 0.109 µM
19 | B4 | 0.079 µM

Each binder was assayed against beta-catenin (Homo sapiens (Human)) (UniProt P35222) (assay: fluorescence polarization competition; full-length beta-catenin with 5FAM-TCF4(10-53) probe as competitor).
Sequence of beta-catenin (Homo sapiens (Human)) (P35222 whole entry): as the sequence (P35222 whole entry) above

Row | Binder | EC50
20 | B1 | 0.074 µM
21 | B2 | 0.08 µM
22 | B3 | 0.109 µM
23 | B4 | 0.079 µM

The binders below were run against full-length beta-Catenin (Uniprot ID P35222) (Homo sapiens (Human)) (UniProt P35222) (assay: fluorescence polarization competition, peptide titrated against full-length beta-catenin + 5FAM-TCF4(10-53)).

Row | Binder | EC50
24 | B16 | 0.005 µM

Each binder was assayed against full-length beta-Catenin (Uniprot ID P35222) (Homo sapiens (Human)) (UniProt P35222) (assay: fluorescence polarization competition; 10 nM full-length beta-catenin with 10 nM 5FAM-TCF4(10-53) probe as competitor).

Row | Binder | IC50
25 | B16 | 0.005 µM
